From patent US20180135019A1
Blank lines part the entries; values can stand above or below the substance they belong to.

Legend:
[1] = biological target: STRO-1 monoclonal antibody; experiment: competition: STRO-1 pre-incubated with GST-L393, flow cytometry on UE7T-13 cells, relative to pre-incubation with GST alone
[2] = biological target: heat shock cognate 70 (HSC70; HSPA8) on the surface of UE7T-13 cells (human) (UniProt P11142); experiment: flow cytometry on UE7T-13 cells, hybridoma supernatant, fluorescein anti-mouse IgM
[3] = biological target: STRO-1 monoclonal antibody; experiment: competition: STRO-1 pre-incubated with rh-HSC70 overnight at 4 C, flow cytometry of STRO-1 on UE7T-13 cells

Sequence of UniProt P11142 (P11142 2-646 limits assumed): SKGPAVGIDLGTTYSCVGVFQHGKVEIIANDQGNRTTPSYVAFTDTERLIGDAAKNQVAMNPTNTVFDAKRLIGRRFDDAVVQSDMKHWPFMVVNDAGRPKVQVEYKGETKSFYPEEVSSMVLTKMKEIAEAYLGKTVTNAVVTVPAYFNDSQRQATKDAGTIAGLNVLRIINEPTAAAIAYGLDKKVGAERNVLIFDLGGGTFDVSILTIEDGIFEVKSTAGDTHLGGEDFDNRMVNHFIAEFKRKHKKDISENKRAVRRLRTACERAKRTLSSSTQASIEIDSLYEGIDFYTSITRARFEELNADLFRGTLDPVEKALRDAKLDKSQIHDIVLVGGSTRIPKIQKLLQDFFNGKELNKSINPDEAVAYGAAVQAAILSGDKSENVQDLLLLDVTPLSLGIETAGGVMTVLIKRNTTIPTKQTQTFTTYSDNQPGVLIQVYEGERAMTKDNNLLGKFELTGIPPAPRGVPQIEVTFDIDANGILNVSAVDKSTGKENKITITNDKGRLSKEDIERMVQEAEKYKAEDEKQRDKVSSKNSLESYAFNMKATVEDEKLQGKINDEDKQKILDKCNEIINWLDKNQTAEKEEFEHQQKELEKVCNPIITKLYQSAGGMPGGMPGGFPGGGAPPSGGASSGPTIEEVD

reduction in antibody binding [1]: 60%
Substance: GST-L393 (N-terminal Glutathione S-transferase fusion of the first 393 amino acids of human HSC70) (from UniProt A2Q0Z1 1-393)

MFI [2]: 17200
Substance: STRO-1 monoclonal antibody

reduction in MFI [3]: 30%
Substance: recombinant human HSC70 (Enzo) (from UniProt A2Q0Z1 1-646)
